Laboratory results taken from publication PMC6829520.

B1: hTREK-1 / hK2P2.1: N110Q (protein)
parent chain: MLPSASRERPGYRAGVAAPDLLDPKSAAQNSKPRLSFSTKPTVLASRVESDTTINVMKWKTVSTIFLVVVLYLIIGATVFKALEQPHEISQRTTIVIQKQTFISQHSCVNSTELDELIQQIVAAINAGIIPLGNTSNQISHWDLGSSFFFAGTVITTIGFGNISPRTEGGKIFCIIYALLGIPLFGFLLAGVGDQLGTIFGKGIAKVEDTFIKWNVSQTKIRIISTIIFILFGCVLFVALPAIIFKHIEGWSALDAIYFVVITLTTIGFGDYVAGGSDIEYLDFYKPVVWFWILVGLAYFAAVLSMIGDWLRVISKKTKEEVGEFRAHAAEWTANVTAEFKETRRRLSVEIYDKFQRATSIKRKLSAELAGNHNQELTPCRRTLSVNHLTSERDVLPPLLKTESIYLNGLTPHCAGEEIAVIENIK
B2: hTREK-1 / hK2P2.1: tunicamycin (protein)
parent chain: B1 parent chain
B3: hTREK-1 / hK2P2.1: N110Q/N134Q (protein)
parent chain: B1 parent chain
B4: hTREK-1 / hK2P2.1: tunicamycin coinjection (2 or 3 ng per oocyte) (protein)
parent chain: B1 parent chain
B5: hTREK-1 / hK2P2.1: N134Q (protein)
parent chain: B1 parent chain
B6: hTREK-1 / hK2P2.1: tunicamycin incubation (0.75 or 1.5 mg/L) (protein)
parent chain: B1 parent chain
B7: hTREK-1 / hK2P2.1: tunicamycin (incubation or injection) (protein)
parent chain: B1 parent chain

What was measured:
[1] = eGFP fluorescence microscopy with WGA membrane stain, HeLa; settings: glycan lost; control: hTREK-1-WT-eGFP
[2] = TEVC, Xenopus oocytes, +20 mV, 48 h; settings: glycan lost; control: wild type
[3] = surface biotinylation, streptavidin pull-down, immunoblot, HEK-293T; settings: glycan lost; control: wild type
[4] = TEVC, oocytes, 24 h versus 48 h; settings: glycan lost; control: wild type
TEVC, Xenopus oocytes = settings: glycan lost
[5] = TEVC pulse step protocol, oocytes, 48 h; settings: glycan lost; control: wild type
[6] = TEVC pulse step protocol, oocytes; settings: glycan lost; control: DMSO vehicle
[7] = TEVC, Xenopus oocytes, +20 mV, 24/48 h; settings: glycan lost; control: DMSO vehicle

Protein | localisation_or_trafficking [1] | other: channel current, percent_of_wt [2] | localisation_or_trafficking, other: reduction of surface fraction relative to WT [3] | other: current at 24 h relative to 48 h (onset of current), other: 24 h current as % of 48 h current [4] | other: resting membrane potential (TEVC, Xenopus oocytes; control: wild type) | other: current-voltage relationship [5] | further results
B1 | no change | decreases | decreases, reduction of surface protein expression (about 16 % for both, N110Q and N134Q) | decreases, 54 vs 57 % to 66% | changes | no change | –
B2 | – | – | – | – | – | – | other: current-voltage relationship [6]: no change
B3 | no change | decreases, a current reduction of 65.5 ± 0.7 % in nonglycosylated subunits | decreases, accompanied by a reduction in surface expression of 70.2% | decreases, 31 vs 57 % to 66% | changes | no change | –
B4 | – | – | – | – | – | – | other: channel current [7]: decreases
B5 | no change | decreases | decreases | decreases, 41 vs 57 % to 66% | changes | no change | –
B6 | – | – | – | – | – | – | other: channel current [7]: decreases, tunicamycin treatment (incubation with 1.5 mg/L) resulted in a current reduction of 79.4%
B7 | – | – | – | – | – | – | other: resting membrane potential (TEVC, Xenopus oocytes; control: DMSO vehicle): changes
